Reference: patent US20040228866A1, “Suppressor genes” (Ludwig Institute for Cancer Research, priority 2000, published 2004)
Values belong to the binder of their own block, whether it stands above or below them.

Biological target: p73α (UniProt O15350)
Assay: cell-based or functional assay

p73α, sequence (O15350 whole entry): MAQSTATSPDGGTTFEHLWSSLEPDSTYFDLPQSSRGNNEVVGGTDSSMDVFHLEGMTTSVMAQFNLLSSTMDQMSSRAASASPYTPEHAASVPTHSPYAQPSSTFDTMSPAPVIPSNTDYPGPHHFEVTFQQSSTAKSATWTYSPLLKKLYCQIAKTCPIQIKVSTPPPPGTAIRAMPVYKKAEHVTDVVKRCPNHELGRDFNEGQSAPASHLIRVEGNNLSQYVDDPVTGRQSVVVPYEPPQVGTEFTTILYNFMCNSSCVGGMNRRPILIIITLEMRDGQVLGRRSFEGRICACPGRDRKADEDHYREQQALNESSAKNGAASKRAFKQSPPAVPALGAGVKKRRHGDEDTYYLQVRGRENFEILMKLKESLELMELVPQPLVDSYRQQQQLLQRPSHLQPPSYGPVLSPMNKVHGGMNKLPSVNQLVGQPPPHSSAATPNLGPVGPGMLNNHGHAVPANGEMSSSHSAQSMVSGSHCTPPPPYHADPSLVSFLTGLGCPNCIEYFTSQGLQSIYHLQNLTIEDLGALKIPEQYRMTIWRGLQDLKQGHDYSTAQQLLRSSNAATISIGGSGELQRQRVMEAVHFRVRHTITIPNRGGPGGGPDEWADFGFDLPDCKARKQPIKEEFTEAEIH

transactivation function on the Bax promoter (Bax-luc reporter): 3 fold
B1: Apoptosis Stimulating Protein 1 (ASPP1) (protein)
chain: MMPMILTVFLSNNEQILTEVPITPETTCRDVVEFCKEPGEGSCHLAEVWRGNERPIPFDHMMYEHLQIWGPRREEVKFFLRHEDSPTENSEQGGRQTQEQRTQRNVINVPGDKRTEYGVGNPRVELTLSELQDMAARQQQQIENQQQMLVAKEQRLHFLKQQERRQQQSISENEKLQKLKERVEAQENKLKKIRAMRGQVDYSKIMNGNLSAEIERFSAMFQEKKQEVQTAILRVDQLSQQLEDLKKGKLNGFQSYNGKLTGPAAVELKRLYQELQIRNQLNQEQNSKLQQQKELLNKRNMEVAMMDKRISELRERLYGKKIQLNRVNGTSSPQSPLSTSGRVAAVGPYIQVPSAGSFPVLGDPIKPQSLSIASNAAHGRSKSANDGNWPTLKQNSSSSVKPVQVAGADWKDPSVEGSVKQGTVSSQPVPFSALGPTEKPGIEIGKVPPPIPGVGKQLPPSYGTYPSPTPLGPGSTSSLERRKEGSLPRPSAGLPSRQRPTLLPATGSTPQPGSSQQIQQRISVPPSPTYPPAGPPAFPAGDSKPELPLTVAIRPFLADKGSRPQSPRKGPQTVNSSSIYSMYLQQATPPKNYQPAAHSALNKSVKAVYGKPVLPSGSTSPSPLPFLHGSLSTGTPQPQPPSESTEKEPEQDGPAAPADGSTVESLPRPLSPTKLTPIVHSPLRYQSDADLEALRRKLANAPRPLKKRSSITEPEGPGGPNIQKLLYQRFNTLAGGMEGTPFYQPSPSQDFMGTLADVDNGNTNANGNLEELPPAQPTAPLPAEPAPSSDANDNELPSPEPEELICPQTTHQTAEPAEDNNNNVATVPTTEQIPSPVAEAPSPGEEQVPPAPLPPASHPPATSTNKRTNLKKPNSERTGHGLRVRFNPLALLLDASLEGEFDLVQRIIYEVEDPSKPNDEGITPLHNAVCAGHHHIVKFLLDFGVNVNAADSDGWTPLHCAASCNSVHLCKQLVESGAAIFASTISDIETAADKCEEMEEGYIQCSQFLYGVQEKLGVMNKGVAYALWDYEAQNSDELSFHEGDALTILRRKDESETEWWWARLGDREGYVPKNLLGLYPRIKPRQRTLA

transactivation function on the Bax promoter (Bax-luc reporter): 6 fold
B2: ASPP2 (1-1128) (protein)
chain: MMPMFLTVYLSNNEQHFTEVPVTPETICRDVVDLCKEPGESDCHLAEVWCGSERPVADNERMFDVLQRFGSQRNEVRFFLRHERPPGRDIVSGPRSQDPSLKRNGVKVPGEYRRKENGVNSPRMDLTLAELQEMASRQQQQIEAQQQLLATKEQRLKFLKQQDQRQQQQVAEQEKLKRLKEIAENQEAKLKKVRALKGHVEQKRLSNGKLVEEIEQMNNLFQQKQRELVLAVSKVEELTRQLEMLKNGRIDSHHDNQSAVAELDRLYKELQLRNKLNQEQNAKLQQQRECLNKRNSEVAVMDKRVNELRDRLWKKKAALQQKENLPVSSDGNLPQQAASAPSRVAAVGPYIQSSTMPRMPSRPELLVKPALPDGSLVIQASEGPMKIQTLPNMRSGAASQTKGSKIHPVGPDWSPSNADLFPSQGSASVPQSTGNALDQVDDGEVPLREKEKKVRPFSMFDAVDQSNAPPSFGTLRKNQSSEDILRDAQVANKNVAKVPPPVPTKPKQINLPYFGQTNQPPSDIKPDGSSQQLSTVVPSMGTKPKPAGQQPRVLLSPSIPSVGQDQTLSPGSKQESPPAAAVRPFTPQPSKDTLLPPFRKPQTVAASSIYSMYTQQQAPGKNFQQAVQSALTKTHTRGPHFSSVYGKPVIAAAQNQQQHPENIYSNSQGKPGSPEPETEPVSSVQENHENERIPRPLSPTKLLPFLSNPYRNQSDADLEALRKKLSNAPRPLKKRSSITEPEGPNGPNIQKLLYQRTTIAAMETISVPSYPSKSASVTASSESPVEIQNPYLHVEPEKEVVSLVPESLSPEDVGNASTENSDMPAPSPGLDYEPEGVPDNSPNLQNNPEEPNPEAPHVLDVYLEEYPPYPPPPYPSGEPEGPGEDSVSMRPPEITGQVSLPPGKRTNLRKTGSERIAHGMRVKFNPLALLLDSSLEGEFDLVQRIIYEVDDPSLPNDEGITALHNAVCAGHTEIVKFLVQFGVNVNAADSDGWTPLHCAASCNNVQVCKFLVESGAAVFAMTYSDMQTAADKCEEMEEGYTQCSQFLYGVQEKMGIMNKGVIYALWDYEPQNDDELPMKEGDCMTIIHREDEDEIEWWWARLNDKEGYVPRNLLGLYPRIKPRQRSLA
